# Positions of bridges follow the written chain, without caps; N, C: chain ends. No end group written: not given here. *: point of attachment. Biotin = O=C1N[C@H]2[C@H](CS[C@H]2CCCCC(=O)*)N1
# B1: biotinylated SN50 peptide (peptide)
# peptide: Biotin-AAVALLPAVLLALLAPVQRKRQKLMP
# notes: also called NTM; full-length biotinylated NTM
# B2: biotinylated cSN50.1 peptide (peptide)
# peptide: Biotin-AAVALLPAVLLALLAPCVQRKRQKLMPC
# modifications: disulfide 17-28 (inferred)
# notes: the N-biotinylated version was used in the pull-down assays; also called NTM; full-length biotinylated NTM
# B3: biotinylated cSN50.1 Beta peptide (peptide)
# peptide: Biotin-AAVALLPAVLLALLAPCVQRDEQKLMPC
# modifications: disulfide 17-28 (inferred)
# notes: cSN50.1 with lysine 21 replaced by aspartic acid and arginine 22 replaced by glutamic acid
# How the values were obtained:
# importin beta = target: T1, importin beta (human, UniProt Q14974 1-876); assay: pull-down from human Jurkat T cell lysate, immunoblot
# T1 construct: also called imp beta; nuclear transport shuttle for SREBPs
# Protocol: (§1) Cell-penetrating peptide cSN50.1 (2986 Da) and other peptides listed in Table 1 were synthesized and prepared as previously described (Liu, D., et al., (2009) Mol Ther 17, 796-802). Biotinylated NTM peptides and their constituent modules were prepared in the same manner, with biotin added to the amino terminus at the last step of synthesis. When necessary, a 5-7 hydrophilic amino acid tag was added to peptide modules to facilitate solubility. For i.p. administration, 200 μl aliquots containing 0.4 or 0.7 mg of cSN50.1 in saline was injected at 8 h or 12 h intervals. Alternatively, 10 mg cSN50.1 in 100 μl sterile H₂O was administered subcutaneously from ALZET Osmotic Pumps (1007D) placed aseptically in interscapular areas. A bolus of 0.7 mg cSN50.1 in 100 μl saline was administered i.p. at weekly pump changes to assure steady NTM bioavailability. Dosage schedules were developed based on previous experimental protocols and half-life studies. Control mice received sterile saline in the same volumes as NTM. Importins pull-down assay. Ten nmols of biotinylated NTM peptides or their constituent modules depicted in Table 1 (SN50, cSN50.1, N50, cN50.1, SSHR-1, SSHR-2) were incubated overnight at 4° C. with 1.5 mg of whole cell extract from unstimulated human Jurkat T cells or serum-starved human HepG2 cells lysed in binding buffer (10 mM HEPES at pH 7.9, 150 mM NaCl, 10 mM KCl, 2.5 mM MgCl₂, 1 mM EGTA, 1 mM DTT, 0.1% NP-40, 1% protease inhibitor cocktail). Lysate was cleared by centrifugation (16,000×g for 30 min at 4° C.) and transferred to a fresh tube containing high capacity Neutravidin beads (Thermo Scientific). After 4 h, beads were separated from lysate/peptide mixture by centrifugation (30 s at 1,000×g) and washed 3 times with binding buffer and 2 times with PBS. Beads were boiled for 10 min in SDS loading buffer, and protein content was analyzed by immunoblotting with a panel of anti-importins alpha and beta antibodies and anti-GAPDH (Abcam) as a cellular protein control.
# GAPDH = target: T2, GAPDH (human, UniProt P04406 2-335); assay: as above
# T2 construct: Cellular protein control of the pull-down; also called control cytoplasmic marker protein GAPDH; control protein GAPDH
# Protocol: as §1
# importin alpha 5 = target: T3, importin alpha 5 (human, UniProt P52294 1-538); assay: pull-down from cell lysate, immunoblot
# T3 construct: also called importins alpha; importins/karyopherins alpha
# importin alpha 1 = importin alpha 1 (human, UniProt P52292 2-529); assay: pull-down from cell lysate, immunoblot
# T1 sequence (Q14974 whole entry): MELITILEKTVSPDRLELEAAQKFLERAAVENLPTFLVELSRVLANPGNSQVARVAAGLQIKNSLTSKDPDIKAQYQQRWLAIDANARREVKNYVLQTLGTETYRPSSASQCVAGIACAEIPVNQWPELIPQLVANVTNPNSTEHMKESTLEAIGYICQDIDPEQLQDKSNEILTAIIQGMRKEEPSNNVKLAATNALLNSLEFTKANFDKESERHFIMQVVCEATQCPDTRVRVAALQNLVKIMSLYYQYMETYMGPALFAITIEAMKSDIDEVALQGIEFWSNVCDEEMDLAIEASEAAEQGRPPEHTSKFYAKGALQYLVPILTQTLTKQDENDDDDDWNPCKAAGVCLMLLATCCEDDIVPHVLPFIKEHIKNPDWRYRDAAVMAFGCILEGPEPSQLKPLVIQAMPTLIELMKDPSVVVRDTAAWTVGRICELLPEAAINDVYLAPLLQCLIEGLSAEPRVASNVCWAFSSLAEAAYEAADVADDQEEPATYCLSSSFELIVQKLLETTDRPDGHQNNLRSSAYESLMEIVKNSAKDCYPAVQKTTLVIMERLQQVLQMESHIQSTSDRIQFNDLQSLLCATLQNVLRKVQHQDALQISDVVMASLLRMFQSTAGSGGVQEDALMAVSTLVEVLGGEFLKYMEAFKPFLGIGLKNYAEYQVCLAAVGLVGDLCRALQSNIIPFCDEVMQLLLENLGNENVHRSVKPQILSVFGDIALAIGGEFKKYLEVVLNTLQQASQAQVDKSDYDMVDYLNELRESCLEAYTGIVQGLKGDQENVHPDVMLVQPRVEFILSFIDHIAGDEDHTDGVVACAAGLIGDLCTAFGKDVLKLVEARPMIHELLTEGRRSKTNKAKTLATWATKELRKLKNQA
# T2 sequence (P04406 2-335 limits assumed): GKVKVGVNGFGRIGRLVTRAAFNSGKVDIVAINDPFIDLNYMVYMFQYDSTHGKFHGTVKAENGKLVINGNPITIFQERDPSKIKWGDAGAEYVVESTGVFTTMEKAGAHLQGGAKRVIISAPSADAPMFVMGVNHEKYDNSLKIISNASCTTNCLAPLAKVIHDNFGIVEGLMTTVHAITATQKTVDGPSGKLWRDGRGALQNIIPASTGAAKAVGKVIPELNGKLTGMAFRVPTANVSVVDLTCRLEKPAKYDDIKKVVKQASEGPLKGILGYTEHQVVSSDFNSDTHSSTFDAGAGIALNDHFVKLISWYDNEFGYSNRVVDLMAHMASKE
# T3 sequence (P52294 whole entry): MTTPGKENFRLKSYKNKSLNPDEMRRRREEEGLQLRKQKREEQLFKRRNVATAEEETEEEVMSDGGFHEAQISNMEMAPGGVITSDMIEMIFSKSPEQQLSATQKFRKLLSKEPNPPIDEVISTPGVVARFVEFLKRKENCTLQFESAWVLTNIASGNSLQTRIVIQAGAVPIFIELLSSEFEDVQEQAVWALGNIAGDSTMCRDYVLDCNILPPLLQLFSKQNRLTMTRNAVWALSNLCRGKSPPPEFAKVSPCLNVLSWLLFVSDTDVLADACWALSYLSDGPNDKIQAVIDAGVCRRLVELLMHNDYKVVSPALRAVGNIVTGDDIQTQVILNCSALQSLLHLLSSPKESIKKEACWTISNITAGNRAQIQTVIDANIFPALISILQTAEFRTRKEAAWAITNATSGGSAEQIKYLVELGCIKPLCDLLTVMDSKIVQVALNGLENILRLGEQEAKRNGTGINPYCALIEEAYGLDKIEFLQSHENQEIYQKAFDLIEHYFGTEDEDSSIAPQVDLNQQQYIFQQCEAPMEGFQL
Binder,binding result (importin beta),binding result (GAPDH),other results
"Biotin-CVQRKRQKLMPC (disulfide 1-12 (inferred), NLS segment of cSN50.1, no SSHR) [biotinylated cN50.1 peptide]",no binding,–,–
B1,–,no binding,–
"Biotin-VQRKRQKLMP (NLS segment of SN50, no SSHR) [biotinylated N50 peptide]",no binding,–,–
B2,–,no binding,–
B3,–,–,binding result (importin alpha 5): no binding; binding result (importin alpha 1): no binding
